In paper PMC9774438 (2022) one finds Ki data, which are given here for 1 molecule.

Test [1] addresses T1, Hm-AMP8 (synthetic construct).
T1 chain: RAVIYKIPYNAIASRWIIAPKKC
In words: Celestine Blue B chlorinating activity assay (varying Cl-, uncompetitive inhibition).

Test [2] has as its target T2, pept_1545 (synthetic construct).
T2 chain: FLIGKAIKRKFCLRSVWNA
Kind of test: Amplex Red peroxidase activity assay (varying H2O2, uncompetitive inhibition).

Test [3] has as its target T1, Hm-AMP8. Described as above.
Test [4] deals with T2, pept_1545. In words: Celestine Blue B chlorinating activity assay (varying Cl-, competitive inhibition).
Test [5] addresses T2, pept_1545. In words: Amplex Red peroxidase activity assay (varying Amplex Red, mixed inhibition).
For test [6], the target named is T1, Hm-AMP8. Described as above.
Test [7] addresses T2, pept_1545. In words: Celestine Blue B chlorinating activity assay (varying H2O2, uncompetitive inhibition).
The target of test [8] is T1, Hm-AMP8. The test is described as above.

Usually Ki stands for the equilibrium dissociation constant of an inhibitor or competing ligand from its target. A lower Ki goes with tighter binding.

B1: Myeloperoxidase (protein)
chain: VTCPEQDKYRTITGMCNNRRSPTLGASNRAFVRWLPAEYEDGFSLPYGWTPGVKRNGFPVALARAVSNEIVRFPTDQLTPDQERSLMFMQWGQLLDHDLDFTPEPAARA
As for B1, the inhibitory constant (Ki) with Hm-AMP8 [1] stood at 0.42 µM; with pept_1545 [2], 52.8 µM; in the test with Hm-AMP8 [3] it was 1.79 µM; with pept_1545 [4], 19.5 µM; in the test with pept_1545 [5] it was 48.3 µM; with Hm-AMP8 [6], 1.1 µM. The values for the Ki with pept_1545 [7] and with Hm-AMP8 [8] were 10.8 µM and 0.28 µM, respectively.
